Earlier results, collected in PMC7294136.
pKd: −log10 of the molar value.

How the values were obtained:
[1] = biological target: RAGE V domain (Homo sapiens) (UniProt Q15109)
[2] = biological target: RAGE (Homo sapiens) (UniProt Q15109); assay: SPR

Substance: S100B (from UniProt P04271)
- pKd [1]: 6.30

Substance: S100A4 (from UniProt P26447)
- pKd [2]: 6.86
